Data published in PMC6521605, “Structural insights into nanoRNA degradation by human Rexo2” (RNA, 2019).
Where a chain is given by its changes, count along the chain named. Names may count otherwise.

What was measured:
[1] = target: T1, Rexo2 H194A H194A (Homo sapiens) (UniProt Q9Y3B8); test: fluorescence polarization; conditions: 50 mM EDTA, Hill coefficient 2.3, FP: 10 nM Cy3-oligonucleotide, 50 mM Tris-HCl pH 7.5, 50 mM NaCl, 15 min at 25 C, crystals: 0.2 M ammonium citrate dibasic, 20% PEG 3350, pH 5.1 …
T1 sequence: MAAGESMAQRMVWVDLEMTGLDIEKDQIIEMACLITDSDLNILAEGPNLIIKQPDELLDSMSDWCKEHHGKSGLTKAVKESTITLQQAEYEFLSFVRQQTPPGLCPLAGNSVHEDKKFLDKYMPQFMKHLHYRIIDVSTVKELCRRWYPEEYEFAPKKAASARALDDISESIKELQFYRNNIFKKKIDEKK

Rexo2 H194A [2] = target: T2, Rexo2 H194A (Homo sapiens, UniProt Q9Y3B8 33-223, H194A); test: fluorescence polarization; 50 mM EDTA; Hill coefficient 1.4; FP: 10 nM Cy3-oligonucleotide, 50 mM Tris-HCl pH 7.5, 50 mM NaCl, 50 mM EDTA, 15 min at 25 C; crystals: 0.2 M ammonium citrate dibasic, 20% PEG 3350, pH 5.1, room temperature; conditions: protein: recombinant; tags: N-terminal 6xHis removed by thrombin; chain copies: 2; label: 5'-Cy3; single strand
T2 sequence: T1 sequence

Rexo2 wild type = target: T3, Rexo2 wild type (Homo sapiens, UniProt Q9Y3B8 33-223); test: X-ray crystallography; no Mg2+ added, two endogenous Mg2+ at partial occupancy; pH 5.1; FP: 10 nM Cy3-oligonucleotide, 50 mM Tris-HCl pH 7.5, 50 mM NaCl, 50 mM EDTA, 15 min at 25 C; crystals: 0.2 M ammonium citrate dibasic, 20% PEG 3350, pH 5.1, room temperature; conditions: protein: recombinant; tags: N-terminal 6xHis removed by thrombin; chain copies: 2; single strand
T3 sequence: T1 sequence with A162H

Rexo2 H194A [3] = target: T2, Rexo2 H194A; test: fluorescence polarization; 50 mM EDTA; FP: 10 nM Cy3-oligonucleotide, 50 mM Tris-HCl pH 7.5, 50 mM NaCl, 50 mM EDTA, 15 min at 25 C; crystals: 0.2 M ammonium citrate dibasic, 20% PEG 3350, pH 5.1, room temperature; conditions: protein: recombinant; tags: N-terminal 6xHis removed by thrombin; chain copies: 2; label: 5'-Cy3; single strand
[4] = target: the molecule itself; test: SEC-MALS; purified His-tag-free Rexo2 (residues 33-223); MW of ~44 kDa against 22.436 kDa calculated for a protomer; conditions not given
Rexo2 D199A = target: T4, Rexo2 D199A (Homo sapiens, UniProt Q9Y3B8 33-223, D199A); test: X-ray crystallography; 2 Mg2+ in active site; pH 5.1; FP: 10 nM Cy3-oligonucleotide, 50 mM Tris-HCl pH 7.5, 50 mM NaCl, 50 mM EDTA, 15 min at 25 C; crystals: 0.2 M ammonium citrate dibasic, 20% PEG 3350, pH 5.1, room temperature; conditions: protein: recombinant; tags: N-terminal 6xHis removed by thrombin; chain copies: 2; single strand
T4 sequence: T1 sequence with A162H, D167A

Rexo2 H194A [5] = target: T2, Rexo2 H194A; test: fluorescence polarization; 50 mM EDTA; Hill coefficient 3.5; Results sentence calls it 12-nt, legend and Methods 11-nt; FP: 10 nM Cy3-oligonucleotide, 50 mM Tris-HCl pH 7.5, 50 mM NaCl, 50 mM EDTA, 15 min at 25 C; crystals: 0.2 M ammonium citrate dibasic, 20% PEG 3350, pH 5.1, room temperature; conditions: protein: recombinant; tags: N-terminal 6xHis removed by thrombin; chain copies: 2; label: 5'-Cy3; single strand

2-nt RNA A2 showed a Kd [1] of 24.4 nM.

With AAAAA (ssRNA) [5-nt RNA A5] the Kd (Rexo2 H194A [2]) was 52.1 nM.

TTTTT (ssDNA) [T5 DNA (crystal)]: binds (Rexo2 wild type).

Molecule TTTTT (ssDNA) [5-nt DNA T5 (Cy3)] has a Kd (Rexo2 H194A [3]) of 51.8 nM.

B1: human RNA exoribonuclease 2 (Rexo2), wild type, residues 33-223 (enzyme, UniProt Q9Y3B8 33-223, looked up)
chain: T1 sequence with A162H
notes: His tag removed with Thrombin (pET28a, NdeI/SalI); a few vector residues may be left at the N-terminus after cleavage (surmise); Calculated MW of a protomer 22.436 kDa; also called wild-type Rexo2; small fragment nuclease; source: E. coli BL21-CodonPlus (DE3) RIPL, purified (HisTrap HP, Thrombin, HisTrap flow-through, Superdex 75); not shown: His6, N-terminal, cleaved
B1 was tested, and the “stoichiometry N” value [4] was 2.

B2: human Rexo2-H194A mutant, residues 33-223 (enzyme, UniProt Q9Y3B8 33-223, looked up)
chain: T1 sequence
notes: human Rexo2, residues 33-223, general base residue H194 replaced by Ala; Made by site-directed mutagenesis from the wild-type construct; PDB 6J7Y holds the wild-type parent; also called H194A Rexo2 mutant; source: E. coli BL21-CodonPlus (DE3) RIPL, purified (HisTrap HP, Thrombin, HisTrap flow-through, Superdex 75); not shown: His6, N-terminal, cleaved
With B2 the “stoichiometry N” value [4] was 2.

B3: human Rexo2-D199A mutant, residues 33-223 (enzyme, UniProt Q9Y3B8 33-223, looked up)
chain: T1 sequence with A162H, D167A
notes: Made by site-directed mutagenesis from the wild-type construct; PDB 6J7Y holds the wild-type parent; source: E. coli BL21-CodonPlus (DE3) RIPL, purified (HisTrap HP, Thrombin, HisTrap flow-through, Superdex 75); not shown: His6, N-terminal, cleaved
In the case of B3, the “stoichiometry N” value [4] is reported as 2.

TTTTTTTTTT (ssDNA) [T10 DNA (crystal)]: binds (Rexo2 D199A).

In the case of AGCGCAGUACC (ssRNA) [11-nt RNA], the Kd (Rexo2 H194A [5]) is reported as 44.3 nM.

Work on TTTTTTTTTTTT (ssDNA) [12-nt DNA T12] yielded a Kd (Rexo2 H194A [3]) of 52.2 nM.

With TTT (ssDNA) [3-nt DNA T3] the Kd (Rexo2 H194A [3]) was 29.9 nM.

UUUUUUUUUUUU (ssRNA) [U12 RNA]: binds (Rexo2 D199A).
